From patent US20160152684A1 come the findings set out here.

Assay [1] concerns the target FcRn, FCGRT & B2M dimer receptor (Sino Biological Inc.). As to the kind of experiment: SPR, 25 nM analyte, (RU at pH 7.4 / RU at pH 6.0) x 100. For orientation: In SPR one partner is held on a chip, and binding of the other changes the refractive index at the surface.
Assay [2] shares this target. As to the kind of experiment: SPR, 50 nM analyte, (RU at pH 7.4 / RU at pH 6.0) x 100.
For assay [3] the target is unchanged. In words: SPR, 100 nM analyte, (RU at pH 7.4 / RU at pH 6.0) x 100.
The target is the same in assay [4]. In words: SPR, 12.5 nM analyte, (RU at pH 7.4 / RU at pH 6.0) x 100.
Assay [5] has the same target. As to the kind of experiment: SPR, mean over 100-12.5 nM analyte, (RU at pH 7.4 / RU at pH 6.0) x 100.
The target is the same in assay [6]. As to the kind of experiment: SPR, FcRn on CM5 chip, 25 nM analyte, RU 2 s before end of pH 6.0 injection.
The target is the same in assay [7]. As to the kind of experiment: SPR, FcRn on CM5 chip, 50 nM analyte, RU 2 s before end of pH 6.0 injection.
Assay [8] shares this target. As to the kind of experiment: SPR, FcRn on CM5 chip, 100 nM analyte, RU 2 s before end of pH 6.0 injection.
Assay [9] shares this target. In words: SPR, FcRn on CM5 chip, 12.5 nM analyte, RU 2 s before end of pH 6.0 injection.
Assay [10] has the same target. As to the kind of experiment: SPR (BIACORE 3000), FcRn on CM5 chip, pH 6.0, 1:1 Langmuir with drifting baseline.
The target is the same in assay [11]. As to the kind of experiment: SPR, FcRn on CM5 chip, 25 nM analyte, RU 10 s after start of dissociation at pH 7.4.
Assay [12] has the same target. In words: SPR, FcRn on CM5 chip, 50 nM analyte, RU 10 s after start of dissociation at pH 7.4.
For assay [13] the target is unchanged. As to the kind of experiment: SPR, FcRn on CM5 chip, 100 nM analyte, RU 10 s after start of dissociation at pH 7.4.
Assay [14] shares this target. As to the kind of experiment: SPR, FcRn on CM5 chip, 12.5 nM analyte, RU 10 s after start of dissociation at pH 7.4.

Sequence of Human growth hormone-immunoglobulin Fc fragment conjugate (P01241 27-217): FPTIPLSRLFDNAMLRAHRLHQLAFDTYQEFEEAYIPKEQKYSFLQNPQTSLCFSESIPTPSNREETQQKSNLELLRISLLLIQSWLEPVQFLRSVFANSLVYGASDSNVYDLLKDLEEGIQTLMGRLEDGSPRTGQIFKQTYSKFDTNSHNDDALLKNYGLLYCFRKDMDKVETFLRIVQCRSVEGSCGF
Sequence of FcRn, FCGRT & B2M dimer receptor (Sino Biological Inc.) (P55899 24-297, chain 1 of 2): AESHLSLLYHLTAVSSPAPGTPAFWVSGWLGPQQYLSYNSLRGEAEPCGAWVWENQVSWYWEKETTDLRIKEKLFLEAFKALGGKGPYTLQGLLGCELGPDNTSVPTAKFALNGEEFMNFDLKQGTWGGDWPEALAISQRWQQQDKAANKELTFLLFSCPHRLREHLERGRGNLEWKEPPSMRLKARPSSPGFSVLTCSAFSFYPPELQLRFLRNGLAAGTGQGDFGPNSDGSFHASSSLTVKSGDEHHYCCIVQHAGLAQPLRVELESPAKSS
Sequence of FcRn, FCGRT & B2M dimer receptor (Sino Biological Inc.) (P61769 21-119, chain 2 of 2, further chain): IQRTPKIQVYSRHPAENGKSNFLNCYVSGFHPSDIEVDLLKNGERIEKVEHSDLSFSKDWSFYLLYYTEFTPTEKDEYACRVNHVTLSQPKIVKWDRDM

As to “Interferon-immunoglobulin Fc fragment conjugate (from UniProt P01563 24-188)”, the Binding ratio (%) stood at 5.6% in assay [1], 4.3% in assay [2], 3.2% in assay [3] and 7% in assay [4]. Also, the Average binding ratio (%) in assay [5] stood at 5%. For the same substance, the Binding amount (RU) at pH 6.0 in assay [6] was 120 RU; in assay [7] it was 157 RU; in [8], 197 RU; in assay [9] it was 91.3 RU. In assay [10], the Kd (usually the equilibrium constant for the complex coming apart) was 30 nM. Moreover, the koff (commonly a measure of how fast the partners let go of each other) in assay [10] worked out at 0.0093 s⁻¹. Besides, the kon (as a rule, the rate constant with which the complex forms) in [10] was determined as 300000 M⁻¹ s⁻¹. In addition, the Binding amount (RU) at pH 7.4 worked out at 6.7 RU in assay [11], 6.7 RU in assay [12], 6.4 RU in assay [13] and 6.4 RU in [14].
In the case of “Human growth hormone-immunoglobulin Fc fragment conjugate (from UniProt P01241 27-217)”, the Binding ratio (%) is 7.4% in assay [1], 5.1% in assay [2], 4% in [3] and 9.8% in [4]. In [5], the Average binding ratio (%) stood at 6.6%. For the same substance, the Binding amount (RU) at pH 6.0 in [6] stood at 112 RU; in [7], 153 RU; in assay [8] it was 206 RU; in [9], 82.9 RU. The substance further had a Kd in assay [10] of 26.8 nM. The substance further displayed an off-rate constant (koff) in assay [10] of 0.0036 s⁻¹. Besides, the kon in assay [10] was 120000 M⁻¹ s⁻¹. In addition, the Binding amount (RU) at pH 7.4 in assay [11] worked out at 8.3 RU; in [12], 7.7 RU; in assay [13], 8.2 RU; in assay [14], 8.1 RU.
